Measurements from patent US20210386836.

Biological target: haemoglobin

B1: PrtV(Pro-B) (protein)
chain: DTVNGSESVKTEATQASGSSVQDNATAKTTVTTNSNSSNNVSNVQTDTVKEAATSNVDSVASQNQATTAQQAKTTADTADQTVPPTTYKDHVKGNVQTAWDNGYKGQGMVVAVIDSGADTNHKDFSKAPESPAISKEDADKKISELGYGKYASEKFPFVYNYASRDNNWVKDDGPDASEHGQHVAGIIGADGQPNGNERYAVGVAPETQLMMMRVFNDQFADENTDDIAQAIYDAVKLGANVIQMSLGQGVAAANLNDVEQKAVEYATQHGVFVSISASNNGNSASVTGEEVPYKPGGADGNFEPFSSSTVANPGASRNAMTVAAENSVVGAGDDMADFSSWGPLQDFTLKPDVSAPGVSVTSTGNDNRYNTMSGTSMAGPFNAGVAALVMQRLKATTNLNGADLVQATKALIMNTAKPMTQQGYDTPVSPRRQGAGEIDAGAATESPVYVVAADGTSSVSLRKVGDSTQFALTFKNLSDKDQTYTFDDFGGGLTEVRDADTGTFHDVYLAGAHVYGNKTVTVKAGQSATYNFTLSLTGLKENQLVEGWLRFVGNDGQNQLVVPYLAYYGDMTSEDVFDKAANQEGTVYGGNYFVNEDNYPRGVADEDSLKALVNLEGNYNWQQVAKLYQDGKVAFSPNADGKSDLLKPYAFVKQNLKDLKVEVLDKSGKVVRVVADEQGLDKSYYESGVNKDVTLSVSMRNNPNTLAWDGKVYDDKAGEMVNAADGEYTYRYVATLYNDGVNKVQTADYPVVIDTTAPVLSNVKYDAATHTLSFDYKDTGSGFTDYSYAVVKVNDKTFGYKLNDGKNSKFLDAAKTSGTFKAVLGSDTLAALTAAKNALSVAVSDVADNTSTVTLLVNGNNDATTKVSVWNATNGLELDQSSPDYQAATSTYNLRGNATSDFYYNGALVQVDNSGNFVVPVSTSDTAVVFTSDAAGKNVVYKLNTATPKAVFAWQVNNTVKENFGIVLDTVVSNNKDDVVVQAAVTKGDNVEAYARDYFTGAVYKADVKDGLATFHVKVTNNSGRTVLLGWTEVVGPTFNDVQRTSANGVYLGVDTDTENPTPAPAFTSADQLGTNVVQEKADSATIGNPGDLPGHSLKDLTTRADANPDIHFDYLKDNDYNWVGAQAVKDGVYNPSTQVFTLTGKVDPNVKSLVVLGDSYNEDDPVNKVNLNSDGTFSFQFHTAPTSQRPVAYIYTKDDGSTTRGTMELILDTVLPTLSLNNVANLQLDSNGDYQVYTNNKDFSVSGEATDNLDGYRFFFNGDNDYREFHNSGVNFVAEAHQDGSTVTNPYPAYKFSKTFNLADATGETTHVYTLSVVDLTGNTVTRKFYVHY
digestion (SDS-PAGE): did not digest
